Measurements reported in PMC5758891.

Molecular target: T1, Lhr-(1-856) (UniProt A0QT91 1-856)
T1 sequence: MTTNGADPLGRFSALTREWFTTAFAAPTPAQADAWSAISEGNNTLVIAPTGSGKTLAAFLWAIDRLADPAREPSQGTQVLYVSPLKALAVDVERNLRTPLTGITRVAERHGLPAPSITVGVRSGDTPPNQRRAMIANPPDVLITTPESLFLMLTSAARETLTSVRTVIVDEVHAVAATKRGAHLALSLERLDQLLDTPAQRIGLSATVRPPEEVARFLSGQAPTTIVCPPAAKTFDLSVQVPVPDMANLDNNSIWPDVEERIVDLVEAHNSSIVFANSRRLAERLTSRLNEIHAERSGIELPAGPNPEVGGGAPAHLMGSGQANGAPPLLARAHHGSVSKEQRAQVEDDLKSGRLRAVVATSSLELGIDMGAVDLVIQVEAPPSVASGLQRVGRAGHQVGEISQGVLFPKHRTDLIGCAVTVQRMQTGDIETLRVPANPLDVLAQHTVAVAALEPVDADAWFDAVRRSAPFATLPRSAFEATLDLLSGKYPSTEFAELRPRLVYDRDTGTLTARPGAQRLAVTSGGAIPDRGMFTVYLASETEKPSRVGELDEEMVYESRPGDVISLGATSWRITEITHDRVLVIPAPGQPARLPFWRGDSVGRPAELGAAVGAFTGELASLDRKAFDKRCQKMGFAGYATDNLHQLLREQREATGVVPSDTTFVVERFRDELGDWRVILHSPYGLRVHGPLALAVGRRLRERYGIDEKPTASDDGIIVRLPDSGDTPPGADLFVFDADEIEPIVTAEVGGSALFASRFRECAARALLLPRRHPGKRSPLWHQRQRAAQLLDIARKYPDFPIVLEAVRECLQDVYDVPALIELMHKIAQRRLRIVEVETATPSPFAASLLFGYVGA
Test: X-ray crystallography

GACCTGCTGCGGATTG (ssDNA) [16-mer ssDNA]: binds.
